Common to all, as to test: AFM force spectroscopy
One experiment addresses MBP-CBD protein.
Experiment [1] addresses MBP-I^N of the Thermosynechococcus vulcanus (Tvu) split intein (Thermosynechococcus vulcanus).
Experiment [2] deals with MBP-I^N of the Nostoc species PCC7120 (Nsp) split intein (Nostoc species PCC7120).
Experiment [3] deals with MBP-I^N of the Oscillatoria limnetica (Oli) split intein (Oscillatoria limnetica).

“MBP-I^C-CBD of the Nostoc species PCC7120 (Nsp) split intein” registered a Fad (adhesion force) with MBP-CBD protein of under 30 pN.

Turning to “MBP-I^C-CBD of the Oscillatoria limnetica (Oli) split intein”, the Fad (adhesion force) with MBP-CBD protein is under 30 pN.

Regarding “MBP-I^C-CBD of the Thermosynechococcus vulcanus (Tvu) split intein”, the Fad (adhesion force) in the experiment with MBP-CBD protein was under 30 pN.

With “cleaved CBD-I^C of the Nostoc species PCC7120 (Nsp) split intein (domain or fragment)”, the values for the Fad (adhesion force, mode of the lognormal distribution) in experiment [1], in experiment [2] and in experiment [3] were 52 pN, 52 pN and 60 pN, respectively.

With “cleaved CBD-I^C of the Oscillatoria limnetica (Oli) split intein (domain or fragment)”, the Fad (adhesion force, mode of the lognormal distribution) in experiment [1], in experiment [2] and in experiment [3] was 52 pN throughout.

Consider “cleaved CBD-I^C of the Thermosynechococcus vulcanus (Tvu) split intein (domain or fragment)”, for which the Fad (adhesion force, mode of the lognormal distribution) in experiment [1] worked out at 53 pN; in experiment [2], 49 pN; in experiment [3], 52 pN.

Source of the values: PMC3760192.
